Laboratory results taken from US20230040568A1.

Target: KIR3DL3 protein (antigen of the affinity determination of Table 3) (human) (UniProt Q8N743)
Experiment: method and antigen format not stated

KIR3DL3 protein (antigen of the affinity determination of Table 3) (human), sequence (Q8N743 other isoform, or with tags, fused parts or gaps limits assumed): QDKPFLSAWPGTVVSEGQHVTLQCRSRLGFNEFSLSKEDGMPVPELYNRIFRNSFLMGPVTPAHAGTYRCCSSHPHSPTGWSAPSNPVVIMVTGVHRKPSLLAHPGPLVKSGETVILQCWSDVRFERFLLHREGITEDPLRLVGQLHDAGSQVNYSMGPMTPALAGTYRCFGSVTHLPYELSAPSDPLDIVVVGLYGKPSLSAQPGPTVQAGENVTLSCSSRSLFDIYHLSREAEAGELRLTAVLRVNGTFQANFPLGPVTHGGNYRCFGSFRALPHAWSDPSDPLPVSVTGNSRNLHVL

B1: monoclonal 26E2 (antibody, part only; not given: VH framework 1 and CDR1, V domains shown, part only)
VH, part: RWVKQTPGQGLEWIGYIYPGDGGTNCNQKFQGKATLTADTSSSTAYMQISSLTSEDSAVYFCARSGNYGNYEGFAFWGQGTLVTVSA
VL: DIKMTQSPSSMYASLGERVTITCKASQDTNSYLSWFQQKPGKSPKTLIYRANRLVDGVPSRFSGSGSGQDYSLTISRLEYEDMGIYYCLQYNEFPYTFGGGTKLEIKRADA
B1 gave a Kd of 0.26 nM.
